For assay [1], the system named is whole blood clot. Nature of the assay: T2Coagulation / TEG LY30 fibrinolysis in healthy patient blood. The conditions noted are these: kaolin runs. The class given is cell-based, human. How it is done: Five different healthy patient samples were used to test whether T2Coagulation was sensitive to fibrinolysis. Addition of tissue plasminogen activator (TPA) was used to simulate fibrinolysis by adding it at two levels to healthy patient blood. TPA cleaves fibrin as it forms. It was observed that fibrinolysis can be detected within 10 minutes on T2Coagulation, which is less than half the time required for detection on TEG. For all five patients there was a clear difference between healthy and fibrinolytic samples.
There are several potential features that can be used for this correlation. Three that were investigated were the difference between (i) the minimum and maximum T2B values (FIG. 13), (ii) the average of the T2B values over the final 25 minutes of the T2B curves, and (iii) the T2B values at 10 minutes. All had correlations with R^2 values between 0.72 and 0.79. The correlation plots show a higher sensitivity of T2Coagulation for fibrinolysis than TEG. This can be seen by the groupings for the different levels of fibrinolysis in FIG. 13. The healthy patient samples are circled with the solid line. […] The T2Coagulation T2B term can be detected in as little as 10 minutes, which is much faster than the TEG LY30 term can be detected, indicating the utility of the T2Coagulation signal for more rapid measurement of fibrinolysis.

For assay [2], the system named is whole blood clot. As to the kind of experiment: T2MR whole blood fibrinolysis with spiked TPA. The format is cell-based, human. The conditions noted are these: 100 U/mL TPA, blood from a healthy donor. How it is done: The T2MR surface is also sensitive to whole blood fibrinolysis. To assess this, healthy donor samples were spiked with tissue plasminogen activator (TPA).
TPA was added at 100 U/mL to blood from a healthy donor. In the absence of TPA (see FIG. 27a) two stable peaks form at the expected clotting time. […] Both the instability and the distance between the final T2 peaks indicate sensitivity to fibrinolysis induced by the presence of TPA.
The T2MR effect on fibrinolysis was expressed in AU values (arbitrary units; see FIG. 27c) obtained by calculating the difference between the maximum and minimum T2 value observed for the clot signal (or T2B) in the T2 time curve.
Fibrinolysis was monitored by T2 magnetic resonance (T2MR) in five patient blood samples with and without the addition of TPA (100 U/mL) (FIG. 27c). […] All other samples required addition of TPA to induce fibrinolysis, as confirmed by the reference method.

Assay [3] relates to IIb/IIIa receptor of human platelets. As to the kind of experiment: TEG clot strength (MA) of whole blood spiked with abciximab. The class given is cell-based. The conditions noted are these: patient sample 29494. How it is done:
The clotting of a whole blood sample was perturbed using the antithrombotic agent abciximab (ReoPro®). Abciximab is the Fab fragment of a human-murine monoclonal antibody that binds to the IIb/IIIa receptor of human platelets and inhibits platelet aggregation. Abciximab serves to inhibit the retraction of a clot during the clotting process.
Samples containing abciximab were prepared according to the following procedure and referenced in the application and Figures by a number corresponding to the concentration of abciximab in units of μg/mL.
1. Blood was drawn from normal donors into six citrate tubes. Normal donors must not have taken aspirin or any anti-platelet drug in the past two weeks.
2. The six tubes of blood were pooled and mixed gently by inversion eight to ten times. Samples were used within two hours of collection.
3. A abciximab solution (10 mg/5 mL) was diluted at a ratio of 1:4 using saline as a diluent to form “solution 1.”
4. The blood was spiked with solution 1 and saline according to Table 5
5. The samples were allowed to sit for at least five minutes prior to running any sample in a T2reader or Bruker minispec.
In a second experiment, five aliquots of patient sample 29494 were prepared with different concentrations (0, 2, 4, 8, and 0 μg/mL) of abciximab prior to initiation of the clotting process. The T2 relaxations times for the samples were measured in series, with each set of measurements lasting approximately 50 min. The first sample tested and the final sample tested contained no added abciximab. The collected T2 decay curves were processed using Inverse Laplace Transforms, as described in Example 18. […] The difference in the curve shape between the first sample run and the final sample run, both of which contained no added abciximab, may be evidence of an effect of sample age on the T2 time distribution. The corresponding TEG-determined MA values for these samples was 60.7, 61.4, 30.4, and 22.0, respectively.

In assay [4] the test system is platelet activity in whole blood. As to the kind of experiment: T2 relaxation spectra / 3D plots of clotting whole blood spiked with abciximab. The class given is cell-based, human. How it is done:
T2 relaxation rate data was collected from CK blood samples drawn from healthy patients. For each sample, a series of T2 decay curves were measured over a period of 50 minutes. The decay curves were each processed using an Inverse Laplace Transform (ILT CONTIN) to provide an array of curves showing T2 intensity as a function of T2 time. […] FIG. 20 illustrates the 3D data sets for patient samples 29328 and 29350 collected on a Bruker minispec. […] At a time between 5 minutes and 30 minutes, the single water population diverged into two significant water populations. These two water populations correspond to the two components of the clot, i.e., the retracted clot and the serum surrounding the retracted clot. […] For some samples these two peaks were not entirely resolved. The correlation between the water populations and the components of the clotted sample was confirmed by separating the retracted clot from the surrounding serum and separately measuring the T2 data for these two components.
In a first experiment, four aliquots of patient sample 29488 were prepared with different concentrations of abciximab (0, 2, 4, and 8 μg/mL) prior to initiation of the clotting process. The T2 relaxation times for the four samples were measuring over the course of clot formation and the corresponding 3D plots were determined using the technique described in Example 13. […] This physical change is evidenced and quantified in the corresponding 3D plots (FIG. 21), showing fast exchange of water within the uniform sample at the highest concentration of abciximab.
In a second experiment, five aliquots of patient sample 29494 were prepared with different concentrations (0, 2, 4, 8, and 0 μg/mL) of abciximab prior to initiation of the clotting process. The T2 relaxations times for the samples were measured in series, with each set of measurements lasting approximately 50 min. […] The corresponding TEG-determined MA values for these samples was 60.7, 61.4, 30.4, and 22.0, respectively.

B1: Cathflo®: recombinant alteplase manufactured by Genentech (protein, UniProt P00750 36-562, looked up)
Tissue-type plasminogen …: SYQVICRDEKTQMIYQQHQSWLRPVLRSNRVEYCWCNSGRAQCHSVPVKSCSEPRCFNGGTCQQALYFSDFVCQCPEGFAGKCCEIDTRATCYEDQGISYRGTWSTAESGAECTNWNSSALAQKPYSGRRPDAIRLGLGNHNYCRNPDRDSKPWCYVFKAGKYSSEFCSTPACSEGNSDCYFGNGSAYRGTHSLTESGASCLPWNSMILIGKVYTAQNPSAQALGLGKHNYCRNPDGDAKPWCHVLKNRRLTWEYCDVPSCSTCGLRQYSQPQFRIKGGLFADIASHPWQAAIFAKHRRSPGERFLCGGILISSCWILSAAHCFQERFPPHHLTVILGRTYRVVPGEEEQKFEVEKYIVHKEFDDDTYDNDIALLQLKSDSSRCAQESSVVRTVCLPPADLQLPDWTECELSGYGKHEALSPFYSERLKEAHVRLYPSSRCTSQHLLNRTVTDNMLCAGDTRSGGPQANLHDACQGDSGGPLVCLNDGRMTLVGIISWGLGCGQKDVPGVYTKVTNYLDWIRDNMRP
modifications: alteplase
notes: recombinant alteplase manufactured by Genentech
With B1, the values for the degree of fibrinolysis result in assay [1] (60 ng/mL) and in assay [1] (118 ng/mL) were “partially fibrinolytic” and “fully fibrinolytic”, respectively.

B2: TPA: tissue plasminogen activator (protein, UniProt P00750 36-562, looked up)
Tissue-type plasminogen …: SYQVICRDEKTQMIYQQHQSWLRPVLRSNRVEYCWCNSGRAQCHSVPVKSCSEPRCFNGGTCQQALYFSDFVCQCPEGFAGKCCEIDTRATCYEDQGISYRGTWSTAESGAECTNWNSSALAQKPYSGRRPDAIRLGLGNHNYCRNPDRDSKPWCYVFKAGKYSSEFCSTPACSEGNSDCYFGNGSAYRGTHSLTESGASCLPWNSMILIGKVYTAQNPSAQALGLGKHNYCRNPDGDAKPWCHVLKNRRLTWEYCDVPSCSTCGLRQYSQPQFRIKGGLFADIASHPWQAAIFAKHRRSPGERFLCGGILISSCWILSAAHCFQERFPPHHLTVILGRTYRVVPGEEEQKFEVEKYIVHKEFDDDTYDNDIALLQLKSDSSRCAQESSVVRTVCLPPADLQLPDWTECELSGYGKHEALSPFYSERLKEAHVRLYPSSRCTSQHLLNRTVTDNMLCAGDTRSGGPQANLHDACQGDSGGPLVCLNDGRMTLVGIISWGLGCGQKDVPGVYTKVTNYLDWIRDNMRP
Take B2: the “clot stability (T2MR peaks)” value in assay [2] is listed as “unstable after 20-30 minutes”.

B3: abciximab (antibody, chains of the INN, looked up, V domains shown)
VH: EVQLQQSGTVLARPGASVKMSCEASGYTFTNYWMHWVKQRPGQGLEWIGAIYPGNSDTSYIQKFKGKAKLTAVTSTTSVYMELSSLTNEDSAVYYCTLYDGYYVFAYWGQGTLVTVSA
VL: EIVLTQSPVTLSVTPGDSVSLSCRASRDISNNLHWFQQTSHESPRLLIKYASQSMSGIPSRFSGSGSGTDFTLSINSVETEDFGMYFCQQTNSWPYTFGGGTKLEIK
modifications: Fab
As for B3, the “TEG-determined MA” value in assay [3] (abciximab 2 μg/mL) was 61.4; in assay [3] (abciximab 4 μg/mL), 30.4; in assay [3] (abciximab 8 μg/mL), 22.0. The “clot associated and serum associated T2 signal” value in assay [4] (8 μg/mL Reopro®, T2reader) is “reduces the signal intensity of the clot associated signal and shifts the serum associated signal to lower T2 values”. Further, in assay [4] (at 0.1 minutes, abciximab 2, 4, 8 μg/mL, patient sample 29494), the “distribution of T2 signals within the initial water population” value is reported as “narrower distribution of T2 signals”. In assay [4] (highest concentration of abciximab (8 μg/mL), patient sample 29488), the “retracted clot and serum water populations in 3D plot” value is “no longer two phases visible within the clot”.
